To fix the notation:
B1: AH receptor-interacting protein (Homo sapiens), O00170 (parent)
chain: MADIIARLREDGIQKRVIQEGRGELPDFQDGTKATFHYRTLHSDDEGTVLDDSRARGKPMELIIGKKFKLPVWETIVCTMREGEIAQFLCDIKHVVLYPLVAKSLRNIAVGKDPLEGQRHCCGVAQMREHSSLGHADLDALQQNPQPLIFHMEMLKVESPGTYQQDPWAMTDEEKAKAVPLIHQEGNRLYREGHVKEAAAKYYDAIACLKNLQMKEQPGSPEWIQLDQQITPLLLNYCQCKLVVEEYYEVLDHCSSILNKYDDNVKAYFKRGKAHAAVWNAQEAQADFAKVLELDPALAPVVSRELRALEARIRQKDEEDKARFRGIFSH

In the assay the parent is B1. The following applies: with hs90b_human HSP90AB1, P08238.
hs90b_human HSP90AB1, P08238, sequence (P08238 whole entry): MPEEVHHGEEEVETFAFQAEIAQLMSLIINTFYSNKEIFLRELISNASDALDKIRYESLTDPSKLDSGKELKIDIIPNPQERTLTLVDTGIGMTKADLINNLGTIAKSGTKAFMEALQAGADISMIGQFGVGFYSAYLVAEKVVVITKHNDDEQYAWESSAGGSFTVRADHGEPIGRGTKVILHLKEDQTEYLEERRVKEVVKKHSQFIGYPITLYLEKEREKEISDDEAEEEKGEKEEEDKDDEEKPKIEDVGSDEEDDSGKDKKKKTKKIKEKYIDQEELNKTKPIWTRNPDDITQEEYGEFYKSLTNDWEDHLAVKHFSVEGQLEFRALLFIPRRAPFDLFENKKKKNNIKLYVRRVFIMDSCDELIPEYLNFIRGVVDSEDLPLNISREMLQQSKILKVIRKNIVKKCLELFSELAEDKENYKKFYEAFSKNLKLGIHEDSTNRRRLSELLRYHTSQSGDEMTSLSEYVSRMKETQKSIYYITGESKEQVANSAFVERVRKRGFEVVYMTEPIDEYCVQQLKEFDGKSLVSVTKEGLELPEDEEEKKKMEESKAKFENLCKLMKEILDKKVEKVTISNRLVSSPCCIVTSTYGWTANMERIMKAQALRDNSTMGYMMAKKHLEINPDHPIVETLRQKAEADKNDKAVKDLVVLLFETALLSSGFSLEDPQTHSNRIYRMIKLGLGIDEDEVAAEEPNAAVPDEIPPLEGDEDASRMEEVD
Regarding K266A, the “effect of a mutation on the interaction” value is reported as “disrupting interaction”. The value for R271A was “disrupting interaction”.

The values are drawn from IntAct's records for PubMed 19375531.
